Read-outs that look alike come from different tables or passages of the source.
Tests used:
[1] = target: T1, programmed death-1 (PD-1) on EL4 cells (mouse (endogenous in EL4), UniProt Q02242); test: flow cytometry on cells
[2] = target: T1, programmed death-1 (PD-1) on EL4 cells; test: flow cytometry on cells; remark: listed apart in the source

T1 sequence (Q02242 25-288): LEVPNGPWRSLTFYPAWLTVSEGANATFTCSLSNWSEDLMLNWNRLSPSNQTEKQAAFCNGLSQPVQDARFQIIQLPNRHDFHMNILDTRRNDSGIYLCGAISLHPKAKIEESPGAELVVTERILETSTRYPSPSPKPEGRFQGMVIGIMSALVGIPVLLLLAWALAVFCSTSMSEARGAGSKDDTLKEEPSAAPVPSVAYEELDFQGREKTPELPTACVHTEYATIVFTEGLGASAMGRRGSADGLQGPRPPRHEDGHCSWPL

| Binder | EC50 [1] [nM] | EC50 [2] [nM] |
| --- | --- | --- |
| αPD-1 scFv, NH2-Histag(H6)-(GGGSG)3-VH-(GGGSG)4-VL-COOH (scFv, V domains shown) VH: EVQLQESGPGLVKPSQSLSLTCSVTGYSITSSYRWNWIRKFPGNRLEWMGYINSAGISNYNPSLKRRISITRDTSKNQFFLQVNSVTTEDAATYYCARSDNMGTTPFTYWGQGTLVTVSS VL: DIVMTQGTLPNPVPSGESVSITCRSSKSLLYSDGKTYLNWYLQRPGQSPQLLIYWMSTRASGVSDRFSGSGSGTDFTLKISGVEAEDVGIYYCQQGLEFPTFGGGTKLELK | 320 | 4160 |
| intact anti-programmed death-1 antibody (αPD-1), clone RMP1-14 (antibody, V domains shown) VH: EVQLQESGPGLVKPSQSLSLTCSVTGYSITSSYRWNWIRKFPGNRLEWMGYINSAGISNYNPSLKRRISITRDTSKNQFFLQVNSVTTEDAATYYCARSDNMGTTPFTYWGQGTLVTVSS VL: DIVMTQGTLPNPVPSGESVSITCRSSKSLLYSDGKTYLNWYLQRPGQSPQLLIYWMSTRASGVSDRFSGSGSGTDFTLKISGVEAEDVGIYYCQQGLEFPTFGGGTKLELK |  | 1320 |

— publication PMC5601012 (Molecular pharmaceutics, 2017)
